# Results taken from the RNAGym collection of RNA variant scans (doi:10.1073/pnas.2313332121).
# B1: TPR t1 (parent)
# chain: GACCAAUCUGCCCUCAGAGCUCGAGAACAUCUUCGGAUGCAGAGGAGGCAGGCUUCGGUGGCGCGAUAGCGCCAACGUCCUCAACCUCCAAUGCAUCCCACCACAUGAUGAUGCCUGAAGAGCCUUGGUUUUUUG
# Variants of: B1
# Assay: polymerase ribozyme fitness, log enrichment relative to wild type (log ratio); higher = more active; in vitro selection for triplet polymerase activity
# In short: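 After PCR construction and transcription, each subunit's mutant library from a heterodimeric triplet polymerase ribozyme was annealed with a biotinylated primer, the partner subunit and triplets. Incubation was frozen, at −7 °C, and extended constructs were gel-excised, bound to streptavidin beads and amplified by RT-PCR, in one selection round done in triplicate. Fitness is the logarithm of a genotype's enrichment divided by that of the wild type, from inverse-variance-weighted replicate averages of Illumina-sequenced inputs and outputs. The base of the logarithm is 2, and genotypes needed ≥10 input reads and ≥1 read per output.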
row,Variant,polymerase ribozyme fitness (log ratio)
1,G69U C80G C98A U130G,-7.2
2,C70U G93U,-1.7
3,C70U G93A,-0.708
4,G69C U106C,-1.22
5,C70G A118U,-1.64
6,C70G U92C C123A,-5.06
7,C70G U78A G93C,-2.76
8,C70U U78C C101A,-1.6
9,G69U C79U A111G U129C U133A,-0.673
10,G69C U87A,-1.98
11,C70A U106C C114A,-4.64
12,C70G G93U,-3.28
13,C70A C72G,-4.19
14,G69U A95G G135U,-0.343
15,C70G C94G C123A,-3.58
16,G69U U112G,0.676
17,C70U C85A C102A,-5.05
18,C70U C86U G117A,-2.35
19,C70G C97U,-2.56
20,C70G G77A,-1.74
21,C70U C80A A90U C123A,-6.41
22,G69U A119U,0.577
23,G69U C73G C80A,-7.09
24,G69U G135C,1.06

row,Variant,polymerase ribozyme fitness (log ratio)
1,G69U C86U C101U C102U G120C,0.552
2,G69U U78G U112A U133C,3.16
3,G69U G128C,-1.01
4,C70G A90C,-4.87
5,C70U C94G A95G,-1.78
6,C70G U81A G117U G120A,-5.65
7,C70U C82U,-1.59
8,G69U C72U U87A G113A,-1.35
9,G69U C102G A119G,-2.01
10,C70U G113A,-1.39
11,G69C C114A,-2.28
12,G69U U78C,0.191
13,C70G A108G,-3.92
14,C70A C102A U112C,-2.45
15,C70U C82G C104A A111U C115U G127U,-6.19
16,C70U C85G,-2.33
17,C70U U81A,-3.3
18,C70G C123U,-0.882
19,G69U A74U C80U,-0.977
20,G69C C115G,-3.08
21,G69U G117U,-1.07
22,C70G C80A C104G C124G,-6.03
23,G69U A74C C104U,0.0316
24,G69C C85A G117C A121C,-5.54

row,Variant,polymerase ribozyme fitness (log ratio)
1,C70U A91U,-3.34
2,C70U U78C A105U G120C U130A,-3.59
3,G69C C102U,-3.02
4,C70A U81A,-2.88
5,C70A G135U,-1.99
6,C70U C79G C114A,-6.1
7,C70G U78C G113A A121G,-2.79
8,C70U U81A U116G,-3.38
9,C70A U78C,-1.85
10,C70G A105G,-5.16
11,C70G C124A,-1.21
12,C70A C114U U125A,-5.48
13,C70G C104A,-4.9
14,C70A A75G,-2.89
15,C70U A111C,-0.279
16,C70U A111U,-4.03
17,C70U G117U,-3.24
18,C70U C101U,-0.854
19,C70U C101G,-2.81
20,C70G U78G A119G,-1.17
21,G69U C94U G120A,1.2
22,C70A G77A A90G,-1.37
23,C70A C124G U125A,0.0006
24,C70U C76G G77A G113C,-3.85

row,Variant,polymerase ribozyme fitness (log ratio)
1,C70U G127C,-2.15
2,C70A U131A,-1.34
3,G69U C86A C104U,0.251
4,G69U U78G U112A,2.31
5,G69U C124U,2.41
6,C70G A74U,-4.98
7,C70U C72G A75U,-1.29
8,G69C C123U,-0.24
9,C70A U106C,-2.99
10,C70G C98U G117A,-5.6
11,C70U C88G,-1.63
12,C70U C88A,-0.884
13,C70G G113C,-4
14,C70G G113A,-3.02
15,C70U C72U,0.27
16,C70G A100C C123A,-4.49
17,G69U A74U G135C,-0.511
18,G69U C99A G127C,-3.98
19,C70G G120A,-1.34
20,C70G G120U,-2.36
21,C70U C98A,-4.77
22,C70A C85U C88U G122U C124G,-2.37
23,G69C U131A,-2.41
24,G69U U109A,-2.79

row,Variant,polymerase ribozyme fitness (log ratio)
1,G69U U109C,-0.222
2,C70U C76U G113C C123A,-5.89
3,G69U C114U U130G,-1.33
4,C70U G110U G135U,-3.77
5,C70U G110A,-1.77
6,C70G U133G,-3.44
7,C70A C72U C101A,-2.45
8,C70A C86A G113A C123G,-2.59
9,G69U U116C,0.102
10,G69U U116G,-2.69
11,C70A C73U,-1.81
12,G69U C101A,-0.434
13,G69U A83U A95U U106A,0.29
14,G69U C72G,-1.29
15,G69U C97U,0.163
16,G69U C97G,-3.33
17,C70G A111U G117U A121U,-6.12
18,C70A A108U C124A,-5.58
19,C70G C82A G113C,-6.03
20,G69C C88G,-2.63
21,G69C G117U,-3.02
22,G69C G117C,-3.97
23,C70U C114G,-3.48
24,G69C C98A C104A C115U,-7.27

row,Variant,polymerase ribozyme fitness (log ratio)
1,G69C C101G G122A U125A,-3.83
2,G69U U106C A121U,2.34
3,G69C C99U G120U,-5.41
4,C70A U126G,-3.42
5,C70A U126C,-2.02
6,C70G A105G G113U U129G,-6.51
7,C70G A83G U112C,-3.8
8,C70G A111G,-3.21
9,G69C U81C,-1.86
10,C70U A118U,0.0135
11,C70G C82G C124A U131G,-3.38
12,G69C C104A U106C U129A,-5.53
13,G69U C99A A111C,-2.81
14,C70U C89U,-1.12
15,C70U C89A,-2.09
16,C70G U109G,-6.4
17,C70A C73U C99U G107U U109C G117U,-6.35
18,G69C G135C,-1.59
19,G69U A84U A90U,-0.387
20,G69U C85A C101A,-1.66
21,G69C C89G,-3.31
22,C70U C82G U106C,-1.36
23,C70G U116A,-4.95
24,G69C C82U U126G,-3.1

row,Variant,polymerase ribozyme fitness (log ratio)
1,C70G C82U,-3.14
2,C70G C82A,-2.48
3,G69U C98U U112G,-1.16
4,C70A U116A G120C,-1.85
5,C70G U78C U92C,-5.65
6,G69U C104U C115U,1.66
7,G69U G120A G128C,-1.25
8,G69U G120U U132C,1.03
9,C70G C104G G110A,-6.86
10,G69U C114U,-0.582
11,G69U A118C,-2.03
12,C70U G122U,-0.0756
13,G69U C73U,0.225
14,C70A C101G,-4.14
15,C70G A95U C114A,-6.28
16,G69U G71A A84C,-4.28
17,G69U A84C C124A,1.33
18,G69C C79U G117U U134G,-1.73
19,C70U C72A C79U G110A,-2.38
20,C70G C85U,-3.79
21,C70U A108G,-2.04
22,G69U U112G U125A,1.09
23,G69C G77A C88A G127A U129A,-5.53
